For assay [1], the target named is 28/32 kDa heterodimeric antigen on the surface of malignant B-cells (human). The assay can be described thus: Scatchard analysis, 125I-labeled antibody on Raji cells.
Assay [2] concerns the target T1, human CD3 antigen (CD3 complex) on T cells (human, UniProt P07766 23-207).
T1 construct: whole, on cells; Multi-subunit complex; also called human CD3 complex
The experiment in a line: Scatchard analysis, 125I-labeled HuM291-Fos on activated human T cells.

T1 sequence (P07766 23-207, one chain of several): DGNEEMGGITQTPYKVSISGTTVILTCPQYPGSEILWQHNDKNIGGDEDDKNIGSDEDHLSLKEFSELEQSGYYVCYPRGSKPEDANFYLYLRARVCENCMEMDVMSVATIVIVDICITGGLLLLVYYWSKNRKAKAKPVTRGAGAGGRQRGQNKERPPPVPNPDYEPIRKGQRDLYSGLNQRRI

Turning to humanized 1D10-IgG1 (antibody), the Ka in assay [1] was 2.3e+08 M⁻¹.

B1: HuM291-Fos F(ab'-zipper)2 (other)
chain 1: QVQLVQSGAEVKKPGASVKVSCKASGYTFISYTMHWVRQAPGQGLEWMGYINPRSGYTHYNQKLKDKATLTADKSASTAYMELSSLRSEDTAVYYCARSAYYDYDGFAYWGQGTLVTVSSASTKGPSVFPLAPSSKSTSGGTAALGCLVKDYFPEPVTVSWNSGALTSGVHTFPAVLQSSGLYSLSSVVTVPSSSLGTQTYICNVNHKPSNTKVDKKVEPKSCDKTHTCPPCKCPAGGLTDTLQAETDQLEDKKSALQTEIANLLKGKEKLEFILAATS
chain 2: DIQMTQSPSSLSASVGDRVTITCSASSSVSYMNWYQQKPGKAPKRLIYDTSKLASGVPSRFSGSGSGTDFTLTISSLQPEDFDTYYCQQWSSNPPTFGGGTKVEIKRTVAAPSVFIFPPSDEQLKSGTASVVCLLNNFYPREAKVQWKVDNALQSGNSQESVTEQDSKDSTYSLSSTLTLSKADYEKHKVYACEVTHQGLSSPVTKSFNRGEC
Regarding B1, the Ka in assay [2] came out at 1.1e+09 M⁻¹.
